This test addresses GST-Ypt1p (S. cerevisiae) (UniProt P01123). As to the kind of experiment: pull-down.

Sequence of GST-Ypt1p (S. cerevisiae) (P01123 whole entry): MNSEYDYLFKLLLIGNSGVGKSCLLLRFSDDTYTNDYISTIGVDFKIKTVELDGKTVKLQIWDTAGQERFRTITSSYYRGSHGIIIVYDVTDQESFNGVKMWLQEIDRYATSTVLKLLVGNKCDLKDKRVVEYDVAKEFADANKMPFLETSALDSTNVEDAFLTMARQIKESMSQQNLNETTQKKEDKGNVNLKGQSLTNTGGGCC

Turning to “purified Sec34/35 complex, P40094 1-801; P53271 1-262; Q06096 1-861; P53079 1-417; P53959 1-839”, the fold less binding than with GTP-loaded GST-Ypt1p is greater than 5 fold and the percent of the complex bound was greater than 50%.

For the origin of these results see PMC2173848.
